Experimental findings from patent US20160137744A1 (ONCOMED PHARMACEUTICALS, published 2016) are described below.

Read-outs that look alike come from different tables or passages of the source.

Test [1] has as its target full-length human MET (FL-MET) on cells (human) (UniProt P08581). The test is described as follows: FACS blocking assay: MET-transfected HEK-293T cells pre-incubated with the agent, then biotin-HGF (blocked ligand) + PE-streptavidin; % cells in gate P2.
Test [2] shares this target. The test is described as follows: FACS competition, biotin-HGF on MET-transfected HEK-293T cells; antibody at 0.16 µg/ml.
Test [3] has as its target T1, human MET (soluble analyte in Biacore) (human, UniProt P08581 25-932). The test is described as follows: SPR (Biacore 2000), antibody captured by anti-human antibody, human MET injected. The method, then: (§1) The KD of monovalent version of 73R009, monovalent anti-MET antibody 5D5, and anti-MET/FZD8-Fc bispecific agent 315B6 were determined using a Biacore 2000 system from Biacore LifeSciences (GE Healthcare). A goat anti-human antibody (Invitrogen H10500) was coupled to a carboxymethyl-dextran (CM5) SPR chip using standard amine-based chemistry (NHS/EDC) and blocked with ethanolamine. Antibodies were diluted to a concentration of 10 μg/ml in HBS-P-BSA (0.01M HEPES pH7.4, 0.15M NaCl, 0.005% v/v Polysorbate 20, 10 μg/ml BSA) and captured onto the chip via the anti-human antibody. Human MET was serially diluted 2-fold from 300 nM to 37.5 nM in HBS-P-BSA and injected sequentially over the captured anti-MET antibodies. MET association and dissociation was measured at each concentration. After each antigen injection 5 μl of 100 mM H₃PO₄ was injected to remove the antigen-antibody complex and a subsequent injection performed. Kinetic data were collected over time and were fit using the simultaneous global fit equation to yield affinity constants (KD values) for each agent.
(§2) In addition, the bispecific agent 315B6 appeared to have stronger affinity for human MET than anti-MET antibody 5D5.
Background: In SPR one partner is held on a chip, and binding of the other changes the refractive index at the surface.

Test [4] concerns the target full-length human MET (FL-MET) on cells (human) (UniProt P08581). The test is described as follows: FACS competition, biotin-HGF on MET-transfected HEK-293T cells; antibody at 10 µg/ml.
For test [5] the target is unchanged. The test is described as follows: FACS blocking assay: MET-transfected HEK-293T cells pre-incubated with the agent, then biotin-HGF (blocked ligand) + PE-streptavidin; inhibition versus the average of the two positive controls.
Test [6] addresses T1, human MET (soluble analyte in Biacore). The test is described as follows: SPR (Biacore 2000), agent captured by anti-human antibody, human MET injected. The method, then:
as §1, §2

The target of test [7] is full-length human MET (FL-MET) on cells (human) (UniProt P08581). Nature of the test: FACS blocking assay: MET-transfected HEK-293T cells pre-incubated with the agent, then biotin-HGF (blocked ligand) + PE-streptavidin; % cells in gate P2. The source holds these as a separate data set.
full-length human MET (FL-MET) on cells (human), sequence (P08581 25-1390 limits assumed): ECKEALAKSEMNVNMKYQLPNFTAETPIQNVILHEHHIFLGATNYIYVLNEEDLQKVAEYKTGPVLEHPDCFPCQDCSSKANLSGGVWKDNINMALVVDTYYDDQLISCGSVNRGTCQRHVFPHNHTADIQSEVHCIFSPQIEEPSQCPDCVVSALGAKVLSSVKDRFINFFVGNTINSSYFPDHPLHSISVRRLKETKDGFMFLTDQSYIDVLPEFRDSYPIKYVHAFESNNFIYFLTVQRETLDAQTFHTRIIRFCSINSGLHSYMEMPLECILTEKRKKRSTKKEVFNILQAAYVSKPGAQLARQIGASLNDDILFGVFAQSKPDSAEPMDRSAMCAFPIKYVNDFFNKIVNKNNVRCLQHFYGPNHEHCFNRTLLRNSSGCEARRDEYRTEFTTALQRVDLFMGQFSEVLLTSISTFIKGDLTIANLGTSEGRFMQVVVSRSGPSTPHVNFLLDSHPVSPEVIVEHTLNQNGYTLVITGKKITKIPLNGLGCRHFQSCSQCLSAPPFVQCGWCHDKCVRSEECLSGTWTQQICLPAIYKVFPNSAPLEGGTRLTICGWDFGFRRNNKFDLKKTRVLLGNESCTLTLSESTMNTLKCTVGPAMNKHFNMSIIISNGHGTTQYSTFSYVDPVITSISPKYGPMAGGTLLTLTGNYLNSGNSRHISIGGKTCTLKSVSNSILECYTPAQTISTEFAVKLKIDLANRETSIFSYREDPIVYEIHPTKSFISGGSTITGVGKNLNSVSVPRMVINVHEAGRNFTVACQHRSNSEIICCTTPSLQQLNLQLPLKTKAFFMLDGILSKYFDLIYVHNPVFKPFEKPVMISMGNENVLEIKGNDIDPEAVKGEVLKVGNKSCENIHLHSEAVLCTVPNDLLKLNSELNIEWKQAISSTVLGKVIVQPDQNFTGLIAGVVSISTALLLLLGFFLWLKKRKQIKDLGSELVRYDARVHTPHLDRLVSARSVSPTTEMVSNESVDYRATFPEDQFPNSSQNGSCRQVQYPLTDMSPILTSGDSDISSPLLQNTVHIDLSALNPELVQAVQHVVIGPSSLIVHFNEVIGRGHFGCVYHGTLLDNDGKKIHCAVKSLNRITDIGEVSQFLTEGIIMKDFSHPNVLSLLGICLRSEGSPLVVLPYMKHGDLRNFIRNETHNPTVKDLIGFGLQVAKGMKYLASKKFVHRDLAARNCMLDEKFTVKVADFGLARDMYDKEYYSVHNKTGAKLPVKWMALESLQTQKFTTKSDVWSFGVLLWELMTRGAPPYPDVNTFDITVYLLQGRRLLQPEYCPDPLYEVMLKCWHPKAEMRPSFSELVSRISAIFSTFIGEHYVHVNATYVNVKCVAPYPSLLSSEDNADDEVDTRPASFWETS
For test [8] the target is unchanged. Nature of the test: FACS blocking assay: MET-transfected HEK-293T cells pre-incubated with the agent, then biotin-HGF (blocked ligand) + PE-streptavidin; inhibition versus the average of the two positive controls. The source holds these as a separate data set.

T1 sequence (P08581 25-932 limits assumed): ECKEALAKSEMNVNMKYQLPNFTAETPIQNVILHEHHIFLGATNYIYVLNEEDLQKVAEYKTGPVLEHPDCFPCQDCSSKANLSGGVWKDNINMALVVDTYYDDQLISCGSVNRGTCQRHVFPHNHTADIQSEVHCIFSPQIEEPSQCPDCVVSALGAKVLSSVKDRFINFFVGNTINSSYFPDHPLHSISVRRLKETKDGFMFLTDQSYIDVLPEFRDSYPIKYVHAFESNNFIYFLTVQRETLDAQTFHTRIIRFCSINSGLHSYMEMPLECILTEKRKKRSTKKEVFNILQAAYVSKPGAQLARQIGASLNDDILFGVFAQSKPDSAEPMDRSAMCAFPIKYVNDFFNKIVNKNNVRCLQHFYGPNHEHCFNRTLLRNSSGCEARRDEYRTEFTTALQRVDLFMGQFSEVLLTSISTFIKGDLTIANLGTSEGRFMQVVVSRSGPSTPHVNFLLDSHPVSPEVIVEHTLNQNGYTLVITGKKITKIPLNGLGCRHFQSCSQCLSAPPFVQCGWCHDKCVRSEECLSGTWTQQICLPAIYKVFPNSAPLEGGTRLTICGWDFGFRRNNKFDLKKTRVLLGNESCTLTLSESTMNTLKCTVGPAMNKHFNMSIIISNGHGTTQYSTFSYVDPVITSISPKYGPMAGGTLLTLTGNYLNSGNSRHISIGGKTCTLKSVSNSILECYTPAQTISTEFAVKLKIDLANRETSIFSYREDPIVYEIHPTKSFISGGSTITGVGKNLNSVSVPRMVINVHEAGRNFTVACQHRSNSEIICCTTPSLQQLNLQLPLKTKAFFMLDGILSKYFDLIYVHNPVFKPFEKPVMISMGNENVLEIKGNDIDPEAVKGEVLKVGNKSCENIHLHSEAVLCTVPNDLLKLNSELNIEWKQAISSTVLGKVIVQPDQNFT

For orientation: Kd means the constant that tells how readily two partners part at equilibrium. Read a low Kd as higher affinity. As for monovalent anti-MET antibody 5D5, in test [1], the % Binding of HGF at 0.16 ug/ml agent amounted to 14.3%, the % Binding of HGF at 0.3 ug/ml agent amounted to 10.6%, the % Binding of HGF at 0.625 ug/ml agent came out at 12% and the % Binding of HGF at 1.25 ug/ml agent worked out at 8.54%. In addition, in test [1], the % Binding of HGF at 2.5 ug/ml agent worked out at 9.61%, the % Binding of HGF at 5 ug/ml agent came out at 6.67% and the % Binding of HGF at 10 ug/ml agent was found to be 6.31%. Also, the percent reduction of HGF binding to MET in test [2] is 28%. Further, the Kd in test [3] is 7.2 nM. The percent reduction of HGF binding to MET in test [4] worked out at 70%. Also, in test [5], the % Inhibition of HGF binding at 0.3 ug/ml agent was determined as 47%, the % Inhibition of HGF binding at 0.625 ug/ml agent came to 40%, the % Inhibition of HGF binding at 1.25 ug/ml agent is 57% and the % Inhibition of HGF binding at 2.5 ug/ml agent stood at 52%. Also, in test [5], the % Inhibition of HGF binding at 5 ug/ml agent came to 67%.

B1: anti-MET/FZD8-Fc bispecific agent 315B6 (bispecific antibody, human IgG2, kappa)
heavy: QVQLQESGPGLVKPSETLSLTCTVTGTTITASYAWSWIRQPPGKGLEWMGYISYSGGTDYNPSLKSRITISRDTFKNQFSLKLSSVTAADTATYYCARKGAYWGQGTLVTVSSASTKGPSVFPLAPCSRSTSESTAALGCLVKDYFPEPVTVSWNSGALTSGVHTFPAVLQSSGLYSLSSVVTVPSSNFGTQTYTCNVDHKPSNTKVDKTVERKCCVECPPCPAPPVAGPSVFLFPPKPKDTLMISRTPEVTCVVVDVSHEDPEVQFNWYVDGVEVHNAKTKPREEQFNSTFRVVSVLTVVHQDWLNGKEYKCKVSNKGLPAPIEKTISKTKGQPREPQVYTLPPSREKMTKNQVSLTCLVKGFYPSDIAVEWESNGQPENNYKTTPPMLKSDGSFFLYSKLTVDKSRWQQGNVFSCSVMHEALHNHYTQKSLSLSPGK
light: DIVLTQSPATLSASPGEKVTLTCSASSSVSSSYLYWYQQKPGQAPKLLIYSTSNLASGVPARFSGSGSGTSYSLTISSLEPEDFATYYCHQWSSYPYTFGGGTKLEIKRTVAAPSVFIFPPSDEQLKSGTASVVCLLNNFYPREAKVQWKVDNALQSGNSQESVTEQDSKDSTYSLSSTLTLSKADYEKHKVYACEVTHQGLSSPVTKSFNRGEC
chain: ASAKELACQEITVPLCKGIGYNYTYMPNQFNHDTQDEAGLEVHQFWPLVEIQCSPDLKFFLCSMYTPICLEDYKKPLPPCRSVCERAKAGCAPLMRQYGFAWPDRMRCDRLPEQGNPDTLCMDYNRTDLTTTKVDKTVERKSCVECPPCPAPPVAGPSVFLFPPKPKDTLMISRTPEVTCVVVDVSHEDPEVQFNWYVDGVEVHNAKTKPREEQFNSTFRVVSVLTVVHQDWLNGKEYKCKVSNKGLPAPIEKTISKTKGQPREPQVYTLPPSREEMTKNQVSLTCLVEGFYPSDIAVEWESNGQPENNYKTTPPMLDSDGSFFLYSELTVDKSRWQQGNVFSCSVMHEALHNHYTQKSLSLSPGK
notes: Heterodimer of a monovalent 73R009 arm (heavy + light) and a FZD8 Fri-Fc fusion arm; plasmids ATCC PTA-13609, PTA-13610, PTA-13611; also called bispecific anti-MET/FZD8-Fc agent
In turn, B1 came in with a Kd in test [6] of 1.8 nM.

B2: monovalent version of anti-MET antibody 73R009 (antibody, part only; not given: monovalent constant regions and partner arm, V domains shown, not shown: another chain or arm of the molecule; a dimerising Fc or GST)
VH: QVQLQESGPGLVKPSETLSLTCTVTGTTITASYAWSWIRQPPGKGLEWMGYISYSGGTDYNPSLKSRITISRDTFKNQFSLKLSSVTAADTATYYCARKGAYWGQGTLVTVSS
VL: DIVLTQSPATLSASPGEKVTLTCSASSSVSSSYLYWYQQKPGQAPKLLIYSTSNLASGVPARFSGSGSGTSYSLTISSLEPEDFATYYCHQWSSYPYTFGGGTKLEIK
As for B2, the percent reduction of HGF binding to MET in test [2] came to 56%. In test [3], the Kd amounted to 1.4 nM. In addition, in test [7], the % Binding of HGF at 0.16 ug/ml agent was 8.72%, the % Binding of HGF at 0.3 ug/ml agent came out at 9.71%, the % Binding of HGF at 0.625 ug/ml agent amounted to 8.03% and the % Binding of HGF at 1.25 ug/ml agent is 7.7%. Besides, in test [7], the % Binding of HGF at 2.5 ug/ml agent is 7.44%, the % Binding of HGF at 5 ug/ml agent came to 7.77% and the % Binding of HGF at 10 ug/ml agent was found to be 5.51%. In addition, the percent reduction of HGF binding to MET in test [4] amounted to 72%. For the same molecule, in test [8], the % Inhibition of HGF binding at 0.3 ug/ml agent amounted to 52%, the % Inhibition of HGF binding at 0.625 ug/ml agent was 60%, the % Inhibition of HGF binding at 1.25 ug/ml agent turned out to be 62% and the % Inhibition of HGF binding at 2.5 ug/ml agent came out at 63%. Besides, in test [8], the % Inhibition of HGF binding at 5 ug/ml agent is 61%.

B3: antibody 73R009 (bivalent "parental" antibody) (antibody, human IgG2, kappa, V domains shown)
VH: B2 VH
VL: DIVLTQSPATLSASPGEKVTLTCSASSSVSSSYLYWYQQKPGQAPKLLIYSTSNLASGVPARFSGSGSGTSYSLTISSLEPEDFATYYCHQWSSYPYTFGGGTKLEIKR
notes: Humanized, bivalent; also called humanized anti-MET monoclonal antibody
In test [3], B3 came in with a Kd of 1.1 nM. This counts as single-digit nanomolar.
